Assay results: patent US20150337049A1 (Genmab, published 2015)

What was measured:
[1] = biological target: T1, HER2 on HER2-positive AU565 cells (human, UniProt P04626 23-1255); assay: FACS, AU565 cells
T1 construct: whole, on cells
Experimental: Cells (1×10^5 cells/well) were incubated in polystyrene 96-well round-bottom plates (Greiner bio-one 650101) with serial dilutions of antibody preparations (range 2 to 10000 ng/mL in 4-fold dilutions for Jurkat cells and range 1 to 3000 ng/mL in 4-fold dilutions for on AU565 cells) in 100 μL PBS/0.1% BSA/0.02% azide at 4° C. for 30 min.
After washing twice in PBS/0.1% BSA/0.02% azide, cells were incubated in 100 μL with secondary antibody at 4° C. for 30 min. As a secondary antibody, R-Phycoerythrin (PE)-conjugated goat-anti-human IgG F(ab′)₂ (109-116-098, Jackson ImmunoResearch Laboratories, Inc., West Grove, Pa.) diluted 1/100 in PBS/0.1% BSA/0.02% azide, was used for all experiments. Next, cells were washed twice in PBS/0.1% BSA/0.02% azide, resuspended in 150 μL PBS/0.1% BSA/0.02% azide and analyzed on a FACS CantoII (BD Biosciences). Binding curves were analyzed using non-linear regression (sigmoidal dose-response with variable slope) using GraphPad Prism V5.04 software (GraphPad Software, San Diego, Calif., USA).

[2] = biological target: T2, C1q (from 3% pooled human serum) (human, UniProt P02745 23-245; P02746 28-253; P02747 29-245); assay: ELISA, antibody coated, 3% pooled human serum, anti-C1q detection
T2 construct: Native C1q of pooled human serum, detected with rabbit anti-human C1q
Experimental: Plates were washed and blocked with PBS supplemented with 0.025% Tween 20 and 0.1% gelatine. […] Detection was performed by addition of 1 mg/mL 2,2′-azino-bis(3-ethylbenzothiazoline-6-sulfonic acid) (ABTS; Roche, Mannheim, Germany) for about 30 min. The reaction was stopped by the addition of 100 μL 2% oxalic acid. Absorbance was measured at 405 nm in a microplate reader (Biotek, Winooski, Vt.). Log transformed data were analyzed by fitting sigmoidal dose-response curves with variable slope using GraphPad Prism software.

| binding result [1] | Binder | binding result [2] |
| --- | --- | --- |
| binds | bsIgG1-CD3×HER2-N297Q (IgG1-huCLB-T3/4×HER2-169 with N297Q) (bispecific antibody, also called NQ) heavy 1: not shown VL 1: EIVLTQSPATLSLSPGERATLSCSASSSVTYVHWYQQKPGQAPRLLIYDTSKLASGIPARFSGSGSGTDFTLTISSLEPEDFAVYYCFQGSGYPLTFGSGTKLEMR heavy 2: not shown VL 2: EIVLTQSPATLSLSPGERATLSCRASQSVSSYLAWYQQKPGQAPRLLIYDASNRATGIPARFSGSGSGTDFTLTISSLEPEDFAVYYCQQRSNWPRTFGQGTKVEIK | no binding (tested: coated at 7-30000 ng/mL) |
| binds | bsIgG1-CD3×HER2-LFLEPS (IgG1-huCLB-T3/4×HER2-169 with L234F/L235E/P331S) (bispecific antibody) heavy 1: EVQLVESGGGLVKPGGSLRLSCAASGFTFSSYGMFWVRQAPGKGLEWVATISRYSRYIYYPDSVKGRFTISRDNAKNSLYLQMNSLRAEDTAVYYCARRPLYGSSPDYWGQGTLVTVSSASTKGPSVFPLAPSSKSTSGGTAALGCLVKDYFPEPVTVSWNSGALTSGVHTFPAVLQSSGLYSLSSVVTVPSSSLGTQTYICNVNHKPSNTKVDKRVEPKSCDKTHTCPPCPAPEFEGGPSVFLFPPKPKDTLMISRTPEVTCVVVDVSHEDPEVKFNWYVDGVEVHNAKTKPREEQYNSTYRVVSVLTVLHQDWLNGKEYKCKVSNKALPASIEKTISKAKGQPREPQVYTLPPSREEMTKNQVSLTCLVKGFYPSDIAVEWESNGQPENNYKTTPPVLDSDGSFLLYSKLTVDKSRWQQGNVFSCSVMHEALHNHYTQKSLSLSPGK VL 1: EIVLTQSPATLSLSPGERATLSCSASSSVTYVHWYQQKPGQAPRLLIYDTSKLASGIPARFSGSGSGTDFTLTISSLEPEDFAVYYCFQGSGYPLTFGSGTKLEMR heavy 2: QVQLVQSGAEVKKPGASVKVSCKASGYTFTNYGISWVRQAPGQGLEWMGWLSAYSGNTIYAQKLQGRVTMTTDTSTTTAYMELRSLRSDDTAVYYCARDRIVVRPDYFDYWGQGTLVTVSSASTKGPSVFPLAPSSKSTSGGTAALGCLVKDYFPEPVTVSWNSGALTSGVHTFPAVLQSSGLYSLSSVVTVPSSSLGTQTYICNVNHKPSNTKVDKRVEPKSCDKTHTCPPCPAPEFEGGPSVFLFPPKPKDTLMISRTPEVTCVVVDVSHEDPEVKFNWYVDGVEVHNAKTKPREEQYNSTYRVVSVLTVLHQDWLNGKEYKCKVSNKALPASIEKTISKAKGQPREPQVYTLPPSREEMTKNQVSLTCLVKGFYPSDIAVEWESNGQPENNYKTTPPVLDSDGSFFLYSRLTVDKSRWQQGNVFSCSVMHEALHNHYTQKSLSLSPGK VL 2: EIVLTQSPATLSLSPGERATLSCRASQSVSSYLAWYQQKPGQAPRLLIYDASNRATGIPARFSGSGSGTDFTLTISSLEPEDFAVYYCQQRSNWPRTFGQGTKVEIK | no binding (tested: coated at 7-30000 ng/mL) |

Further lines, the binder ahead of its results:

| Binder | binding result [1] | binding result [2] |
| --- | --- | --- |
| bsIgG1-CD3×HER2-LFLEDA (IgG1-huCLB-T3/4×HER2-169 with L234F/L235E/D265A) (bispecific antibody, also called huCLB-T3/4×HER2-LFLEDA; copies: 1 + 1 + 1 + 1) heavy 1: EVQLVESGGGLVKPGGSLRLSCAASGFTFSSYGMFWVRQAPGKGLEWVATISRYSRYIYYPDSVKGRFTISRDNAKNSLYLQMNSLRAEDTAVYYCARRPLYGSSPDYWGQGTLVTVSSASTKGPSVFPLAPSSKSTSGGTAALGCLVKDYFPEPVTVSWNSGALTSGVHTFPAVLQSSGLYSLSSVVTVPSSSLGTQTYICNVNHKPSNTKVDKRVEPKSCDKTHTCPPCPAPEFEGGPSVFLFPPKPKDTLMISRTPEVTCVVVAVSHEDPEVKFNWYVDGVEVHNAKTKPREEQYNSTYRVVSVLTVLHQDWLNGKEYKCKVSNKALPAPIEKTISKAKGQPREPQVYTLPPSREEMTKNQVSLTCLVKGFYPSDIAVEWESNGQPENNYKTTPPVLDSDGSFLLYSKLTVDKSRWQQGNVFSCSVMHEALHNHYTQKSLSLSPGK VL 1: EIVLTQSPATLSLSPGERATLSCSASSSVTYVHWYQQKPGQAPRLLIYDTSKLASGIPARFSGSGSGTDFTLTISSLEPEDFAVYYCFQGSGYPLTFGSGTKLEMR heavy 2: QVQLVQSGAEVKKPGASVKVSCKASGYTFTNYGISWVRQAPGQGLEWMGWLSAYSGNTIYAQKLQGRVTMTTDTSTTTAYMELRSLRSDDTAVYYCARDRIVVRPDYFDYWGQGTLVTVSSASTKGPSVFPLAPSSKSTSGGTAALGCLVKDYFPEPVTVSWNSGALTSGVHTFPAVLQSSGLYSLSSVVTVPSSSLGTQTYICNVNHKPSNTKVDKRVEPKSCDKTHTCPPCPAPEFEGGPSVFLFPPKPKDTLMISRTPEVTCVVVAVSHEDPEVKFNWYVDGVEVHNAKTKPREEQYNSTYRVVSVLTVLHQDWLNGKEYKCKVSNKALPAPIEKTISKAKGQPREPQVYTLPPSREEMTKNQVSLTCLVKGFYPSDIAVEWESNGQPENNYKTTPPVLDSDGSFFLYSRLTVDKSRWQQGNVFSCSVMHEALHNHYTQKSLSLSPGK VL 2: EIVLTQSPATLSLSPGERATLSCRASQSVSSYLAWYQQKPGQAPRLLIYDASNRATGIPARFSGSGSGTDFTLTISSLEPEDFAVYYCQQRSNWPRTFGQGTKVEIK | binds | no binding (tested: coated at 7-30000 ng/mL) |
| bsIgG1-CD3×HER2-… (IgG1-huCLB-T3/4×HER2-169 with L234F/L235E/D265A/N297Q/P331S) (bispecific antibody) heavy 1: EVQLVESGGGLVKPGGSLRLSCAASGFTFSSYGMFWVRQAPGKGLEWVATISRYSRYIYYPDSVKGRFTISRDNAKNSLYLQMNSLRAEDTAVYYCARRPLYGSSPDYWGQGTLVTVSSASTKGPSVFPLAPSSKSTSGGTAALGCLVKDYFPEPVTVSWNSGALTSGVHTFPAVLQSSGLYSLSSVVTVPSSSLGTQTYICNVNHKPSNTKVDKRVEPKSCDKTHTCPPCPAPEFEGGPSVFLFPPKPKDTLMISRTPEVTCVVVAVSHEDPEVKFNWYVDGVEVHNAKTKPREEQYQSTYRVVSVLTVLHQDWLNGKEYKCKVSNKALPASIEKTISKAKGQPREPQVYTLPPSREEMTKNQVSLTCLVKGFYPSDIAVEWESNGQPENNYKTTPPVLDSDGSFLLYSKLTVDKSRWQQGNVFSCSVMHEALHNHYTQKSLSLSPGK VL 1: EIVLTQSPATLSLSPGERATLSCSASSSVTYVHWYQQKPGQAPRLLIYDTSKLASGIPARFSGSGSGTDFTLTISSLEPEDFAVYYCFQGSGYPLTFGSGTKLEMR heavy 2: QVQLVQSGAEVKKPGASVKVSCKASGYTFTNYGISWVRQAPGQGLEWMGWLSAYSGNTIYAQKLQGRVTMTTDTSTTTAYMELRSLRSDDTAVYYCARDRIVVRPDYFDYWGQGTLVTVSSASTKGPSVFPLAPSSKSTSGGTAALGCLVKDYFPEPVTVSWNSGALTSGVHTFPAVLQSSGLYSLSSVVTVPSSSLGTQTYICNVNHKPSNTKVDKRVEPKSCDKTHTCPPCPAPEFEGGPSVFLFPPKPKDTLMISRTPEVTCVVVAVSHEDPEVKFNWYVDGVEVHNAKTKPREEQYQSTYRVVSVLTVLHQDWLNGKEYKCKVSNKALPASIEKTISKAKGQPREPQVYTLPPSREEMTKNQVSLTCLVKGFYPSDIAVEWESNGQPENNYKTTPPVLDSDGSFFLYSRLTVDKSRWQQGNVFSCSVMHEALHNHYTQKSLSLSPGK VL 2: EIVLTQSPATLSLSPGERATLSCRASQSVSSYLAWYQQKPGQAPRLLIYDASNRATGIPARFSGSGSGTDFTLTISSLEPEDFAVYYCQQRSNWPRTFGQGTKVEIK | binds | no binding (tested: coated at 7-30000 ng/mL) |
| bsIgG1-CD3×HER2-LFLENQ (IgG1-huCLB-T3/4×HER2-169 with L234F/L235E/N297Q) (bispecific antibody) heavy 1: EVQLVESGGGLVKPGGSLRLSCAASGFTFSSYGMFWVRQAPGKGLEWVATISRYSRYIYYPDSVKGRFTISRDNAKNSLYLQMNSLRAEDTAVYYCARRPLYGSSPDYWGQGTLVTVSSASTKGPSVFPLAPSSKSTSGGTAALGCLVKDYFPEPVTVSWNSGALTSGVHTFPAVLQSSGLYSLSSVVTVPSSSLGTQTYICNVNHKPSNTKVDKRVEPKSCDKTHTCPPCPAPEFEGGPSVFLFPPKPKDTLMISRTPEVTCVVVDVSHEDPEVKFNWYVDGVEVHNAKTKPREEQYQSTYRVVSVLTVLHQDWLNGKEYKCKVSNKALPAPIEKTISKAKGQPREPQVYTLPPSREEMTKNQVSLTCLVKGFYPSDIAVEWESNGQPENNYKTTPPVLDSDGSFLLYSKLTVDKSRWQQGNVFSCSVMHEALHNHYTQKSLSLSPGK VL 1: EIVLTQSPATLSLSPGERATLSCSASSSVTYVHWYQQKPGQAPRLLIYDTSKLASGIPARFSGSGSGTDFTLTISSLEPEDFAVYYCFQGSGYPLTFGSGTKLEMR heavy 2: QVQLVQSGAEVKKPGASVKVSCKASGYTFTNYGISWVRQAPGQGLEWMGWLSAYSGNTIYAQKLQGRVTMTTDTSTTTAYMELRSLRSDDTAVYYCARDRIVVRPDYFDYWGQGTLVTVSSASTKGPSVFPLAPSSKSTSGGTAALGCLVKDYFPEPVTVSWNSGALTSGVHTFPAVLQSSGLYSLSSVVTVPSSSLGTQTYICNVNHKPSNTKVDKRVEPKSCDKTHTCPPCPAPEFEGGPSVFLFPPKPKDTLMISRTPEVTCVVVDVSHEDPEVKFNWYVDGVEVHNAKTKPREEQYQSTYRVVSVLTVLHQDWLNGKEYKCKVSNKALPAPIEKTISKAKGQPREPQVYTLPPSREEMTKNQVSLTCLVKGFYPSDIAVEWESNGQPENNYKTTPPVLDSDGSFFLYSRLTVDKSRWQQGNVFSCSVMHEALHNHYTQKSLSLSPGK VL 2: EIVLTQSPATLSLSPGERATLSCRASQSVSSYLAWYQQKPGQAPRLLIYDASNRATGIPARFSGSGSGTDFTLTISSLEPEDFAVYYCQQRSNWPRTFGQGTKVEIK | binds | no binding (tested: coated at 7-30000 ng/mL) |
